This note sets out measurements from publication PMC7946437, “Cardiolipin targets a dynamin-related protein to the nuclear membrane” (eLife, 2021).

The stoichiometry N is the number of molecules, sites or subunits per partner or assembly. In general, Km refers to the substrate concentration at which the rate is half of its maximum.

One data set deals with T1, Drp6 (His-drp6) (Tetrahymena thermophila, UniProt Q38KF5, I553A).
T1 construct: full length aa 1-710, N-terminal His tag (pRSETB), expressed in E. coli C41(DE3), Ni-NTA; higher-order oligomer (at least six monomers)
T1 sequence (Q38KF5 entry or part of it I553A): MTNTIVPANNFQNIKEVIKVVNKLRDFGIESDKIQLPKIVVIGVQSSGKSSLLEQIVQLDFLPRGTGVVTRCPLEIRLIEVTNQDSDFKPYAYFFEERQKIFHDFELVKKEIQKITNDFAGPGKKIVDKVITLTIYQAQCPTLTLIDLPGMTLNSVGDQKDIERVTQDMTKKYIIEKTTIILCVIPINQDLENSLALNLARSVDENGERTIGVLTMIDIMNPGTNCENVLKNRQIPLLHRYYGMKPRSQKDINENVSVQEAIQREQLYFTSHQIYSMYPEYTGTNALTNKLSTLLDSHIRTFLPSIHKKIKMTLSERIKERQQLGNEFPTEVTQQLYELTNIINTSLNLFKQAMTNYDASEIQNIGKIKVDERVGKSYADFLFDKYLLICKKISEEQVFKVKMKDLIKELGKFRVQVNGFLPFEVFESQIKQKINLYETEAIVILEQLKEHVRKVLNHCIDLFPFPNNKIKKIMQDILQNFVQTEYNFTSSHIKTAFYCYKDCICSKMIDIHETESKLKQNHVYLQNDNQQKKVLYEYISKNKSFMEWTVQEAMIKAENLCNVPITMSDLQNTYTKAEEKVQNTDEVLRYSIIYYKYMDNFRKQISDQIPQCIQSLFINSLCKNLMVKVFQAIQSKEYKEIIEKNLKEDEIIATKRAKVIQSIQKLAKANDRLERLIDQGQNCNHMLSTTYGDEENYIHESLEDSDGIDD
As to the kind of experiment: Malachite Green phosphate release (BIOMOL Green). The format is biochemical. The settings on record: 1 mM GTP, 1 µM protein, 25 mM HEPES pH 7.5, 15 mM KCl, 2 mM MgCl2, 37°C.

Data set [1] concerns the molecule itself. Put plainly: SEC; Superdex 200 GL 10/300; 500 µl of protein (0.5 mg/ml) in buffer A, 0.5 ml/min, absorbance at 280 nm; self-assembly into higher order oligomers.
Substrate in data set [2]: Nc1nc2c(ncn2[C@@H]2O[C@H](COP(=O)(O)OP(=O)(O)OP(=O)(O)O)[C@@H](O)[C@H]2O)c(=O)[nH]1
As to the kind of experiment: Malachite Green phosphate release (BIOMOL Green). It is filed as biochemical, Tetrahymena thermophila. The note with it: 25 mM HEPES pH 7.5, 15 mM KCl, 2 mM MgCl2, 37°C, 10 min, GTP 50-2000 µM.

Positions count from the first letter of the chain named. In names and notes the source's numbering stands. Some results are limits rather than exact numbers.

Take `Nc1nc2c(ncn2[C@@H]2O[C@H](COP(=O)(O)OP(=O)(O)OP(=O)(O)O)[C@@H](O)[C@H]2O)c(=O)[nH]1` [GTP]: at Drp6 (His-drp6), the “Malachite Green phosphate release (BIOMOL Green)” value is “does not affect its activity as assessed by the rate of GTP hydrolysis”.

B1: Tetrahymena dynamin-related protein 6 (Drp6), N-terminal histidine-tagged (natural protein, Tetrahymena thermophila, UniProt Q38KF5 1-710, looked up)
chain: MTNTIVPANNFQNIKEVIKVVNKLRDFGIESDKIQLPKIVVIGVQSSGKSSLLEQIVQLDFLPRGTGVVTRCPLEIRLIEVTNQDSDFKPYAYFFEERQKIFHDFELVKKEIQKITNDFAGPGKKIVDKVITLTIYQAQCPTLTLIDLPGMTLNSVGDQKDIERVTQDMTKKYIIEKTTIILCVIPINQDLENSLALNLARSVDENGERTIGVLTMIDIMNPGTNCENVLKNRQIPLLHRYYGMKPRSQKDINENVSVQEAIQREQLYFTSHQIYSMYPEYTGTNALTNKLSTLLDSHIRTFLPSIHKKIKMTLSERIKERQQLGNEFPTEVTQQLYELTNIINTSLNLFKQAMTNYDASEIQNIGKIKVDERVGKSYADFLFDKYLLICKKISEEQVFKVKMKDLIKELGKFRVQVNGFLPFEVFESQIKQKINLYETEAIVILEQLKEHVRKVLNHCIDLFPFPNNKIKKIMQDILQNFVQTEYNFTSSHIKTAFYCYKDCICSKMIDIHETESKLKQNHVYLQNDNQQKKVLYEYISKNKSFMEWTVQEIMIKAENLCNVPITMSDLQNTYTKAEEKVQNTDEVLRYSIIYYKYMDNFRKQISDQIPQCIQSLFINSLCKNLMVKVFQAIQSKEYKEIIEKNLKEDEIIATKRAKVIQSIQKLAKANDRLERLIDQGQNCNHMLSTTYGDEENYIHESLEDSDGIDD
notes: Dynamin-related protein 6 (Drp6) of Tetrahymena thermophila; the text calls the His-tagged protein the full-length protein; pRSETB vector; also called His-drp6; WT; source: E. coli C41(DE3), purified (Ni-NTA agarose); not shown: histidine tag, N-terminal, kept
For the molecule B1, the “stoichiometry N” value in data set [1] is no less than 6 monomers. In addition, the Km in data set [2] was 180 µM.

B2: Drp6-I553M, N-terminal histidine-tagged (natural protein, Tetrahymena thermophila, UniProt Q38KF5 1-710, looked up)
chain: B1 chain with I553M
notes: Dynamin-related protein 6 (Drp6) of Tetrahymena thermophila with I553M, made by site-directed mutagenesis of the His-drp6 construct; pRSETB vector; same limits as His-drp6 are likely (point mutant of that construct); also called His-drp6-I553M; source: E. coli C41(DE3), purified (Ni-NTA agarose); not shown: histidine tag, N-terminal, kept
With B2, the binding result in data set [1] is “binds”. The Km in data set [2] worked out at 384 µM.

B3: Drp6-I553A, N-terminal histidine-tagged (natural protein, Tetrahymena thermophila, UniProt Q38KF5 1-710, looked up)
chain: B1 chain with I553A
notes: Dynamin-related protein 6 (Drp6) of Tetrahymena thermophila with I553A, made by site-directed mutagenesis of the His-drp6 construct; pRSETB vector; same limits as His-drp6 are likely (point mutant of that construct); also called His-drp6-I553A; I553A-Drp6; source: E. coli C41(DE3), purified (Ni-NTA agarose); not shown: histidine tag, N-terminal, kept
As to B3, in data set [1], the binding result was “binds”.
